Assay results taken from patent US20250163183A1 (COAGULANT THERAPEUTICS, published 2025).

T1: FVIIa (UniProt P08709 61-466)
T1 construct: also called factor VIIa
T1 sequence (looked up): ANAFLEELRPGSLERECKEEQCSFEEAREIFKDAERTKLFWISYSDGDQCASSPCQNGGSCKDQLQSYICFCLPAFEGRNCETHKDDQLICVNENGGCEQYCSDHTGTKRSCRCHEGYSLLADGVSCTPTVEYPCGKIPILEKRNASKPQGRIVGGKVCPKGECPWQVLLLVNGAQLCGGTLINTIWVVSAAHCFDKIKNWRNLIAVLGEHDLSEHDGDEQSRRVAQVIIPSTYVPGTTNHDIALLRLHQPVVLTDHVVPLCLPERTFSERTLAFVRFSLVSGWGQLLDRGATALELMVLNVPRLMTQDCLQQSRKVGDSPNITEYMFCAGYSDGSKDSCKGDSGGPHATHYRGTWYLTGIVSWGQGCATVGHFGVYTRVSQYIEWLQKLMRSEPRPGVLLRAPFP

B1: LP12 (SR16983-R3-P3-F06) (VHH, not shown: small tags and cut ends)
VHH: QLQLVESGGGLVQAGDSLRLSCTSSGLTASTYAMAWFRQAPGKEREFVAVVDWKGDTTYANSVKGRFTLSRDNGKNTNYLQMNSLQPEDTALYYCAARGSPGYVARLYAHWGRGTQVTVSS
notes: Llama VHH purified from E. coli periplasm
B2: LP8 (SR16983-R3-P3-A04) (VHH, not shown: small tags and cut ends)
VHH: QLQLVESGGGLVEAGGSLRLSCAASGRTFSSGALGWFRQAPGKEREFVATIRWSDERTQYSEFVKGRFTISRDNAKNTVYLQMNNLQPEDTAVYYCRSTVGNLLYWGQGTQVTVSS
notes: as for B1

Assays:
[1] = biological target: T2, human protein C (PC) zymogen (human, UniProt P04070 43-197; P04070 200-461); assay: ELISA
T2 construct: Bought

[2] = biological target: T3, human activated protein C (APC) (human, UniProt P04070 43-461); assay: cell-based or functional assay
[3] = biological target: T3, human activated protein C (APC); assay: cell-based or functional assay; remark: listed apart in the source
[4] = biological target: T3, human activated protein C (APC); assay: BLI, VHH captured via anti-V5, APC in solution
FXIa = biological target: T4, FXIa (UniProt P03951 19-625); assay: ELISA, FXIa coated at 10 µg/mL, HRP-anti-V5, n=3
T4 construct: also called factor XIa

FVIIa = biological target: T1, FVIIa; assay: ELISA, FVIIa coated at 10 µg/mL, HRP-anti-V5, n=3
[5] = biological target: T3, human activated protein C (APC); assay: BLI; end tied to LP12 by Table 5; lower end of the koff range, LP9 set apart; LP12
[6] = biological target: T3, human activated protein C (APC); assay: BLI (Octet): nanobody captured on anti-V5 sensor, dipped in 500 nM APC; buffer sensor reads 0.06
[7] = biological target: T2, human protein C (PC) zymogen; assay: ELISA screen, PC-coated wells, OD450, n=2
[8] = biological target: T3, human activated protein C (APC); assay: BLI; end tied to LP8 by Table 5; upper end of the kon range; LP8

T3 sequence (P04070 other isoform, or with tags, fused parts or gaps): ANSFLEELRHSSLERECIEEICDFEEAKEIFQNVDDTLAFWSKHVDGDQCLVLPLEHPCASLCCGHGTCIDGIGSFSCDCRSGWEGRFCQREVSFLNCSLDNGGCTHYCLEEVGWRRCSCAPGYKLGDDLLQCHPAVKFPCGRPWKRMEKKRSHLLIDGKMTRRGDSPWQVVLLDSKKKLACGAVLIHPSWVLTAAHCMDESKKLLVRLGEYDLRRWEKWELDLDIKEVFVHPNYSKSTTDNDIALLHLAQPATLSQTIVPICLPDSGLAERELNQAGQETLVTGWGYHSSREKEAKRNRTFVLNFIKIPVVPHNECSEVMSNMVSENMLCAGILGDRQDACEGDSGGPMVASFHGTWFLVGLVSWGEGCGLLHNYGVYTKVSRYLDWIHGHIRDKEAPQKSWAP
T2 sequence (P04070 43-197, chain 1 of 2): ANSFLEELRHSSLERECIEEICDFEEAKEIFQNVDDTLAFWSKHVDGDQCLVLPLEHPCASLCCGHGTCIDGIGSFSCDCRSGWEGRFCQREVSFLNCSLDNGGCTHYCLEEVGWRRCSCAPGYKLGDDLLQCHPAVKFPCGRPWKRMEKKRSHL
T2 sequence (P04070 200-461, chain 2 of 2): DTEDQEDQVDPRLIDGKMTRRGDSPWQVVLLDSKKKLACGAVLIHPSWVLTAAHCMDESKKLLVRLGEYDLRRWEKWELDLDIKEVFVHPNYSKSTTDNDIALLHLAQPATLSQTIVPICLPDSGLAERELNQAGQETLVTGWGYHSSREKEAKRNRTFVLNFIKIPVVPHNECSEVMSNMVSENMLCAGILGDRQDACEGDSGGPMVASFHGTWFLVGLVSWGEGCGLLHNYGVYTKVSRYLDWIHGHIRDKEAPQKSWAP
T4 sequence (P03951 19-625 limits assumed): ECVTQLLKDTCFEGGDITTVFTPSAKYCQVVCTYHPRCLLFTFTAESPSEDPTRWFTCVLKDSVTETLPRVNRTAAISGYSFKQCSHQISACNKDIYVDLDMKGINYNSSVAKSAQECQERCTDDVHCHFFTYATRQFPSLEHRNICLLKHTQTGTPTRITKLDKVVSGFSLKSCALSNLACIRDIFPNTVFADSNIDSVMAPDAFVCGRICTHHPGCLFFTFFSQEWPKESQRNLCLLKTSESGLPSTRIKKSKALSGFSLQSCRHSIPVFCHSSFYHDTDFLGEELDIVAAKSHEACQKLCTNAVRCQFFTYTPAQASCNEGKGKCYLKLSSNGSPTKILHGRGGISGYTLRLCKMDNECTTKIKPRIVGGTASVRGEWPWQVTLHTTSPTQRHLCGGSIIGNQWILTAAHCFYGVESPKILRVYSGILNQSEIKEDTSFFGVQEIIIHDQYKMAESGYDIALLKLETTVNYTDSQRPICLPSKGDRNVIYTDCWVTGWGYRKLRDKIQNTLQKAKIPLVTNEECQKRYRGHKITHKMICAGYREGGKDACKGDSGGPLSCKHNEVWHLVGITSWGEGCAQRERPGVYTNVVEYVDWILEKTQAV

Row | binding result [1] | APC-mediated histone H3 cleavage, 500 nM nanobody [2] [% residual activity] | APC plasma T1/2 (min; mean) [3] [min] | Kd [4] [nM] | koff [4] [s⁻¹] | kon [4] [M⁻¹ s⁻¹] | binding result (FXIa) | binding result (FVIIa) | koff [5] [s⁻¹] | APC binding (nm) [6] [nm] | Protac-APTT clotting time, 300 nM nanobody [2] [%] | binding result [7] | kon [8] [M⁻¹ s⁻¹] | Binder
1 | no binding | < 75 | 50.1 | 0.68 | 0.00026 | 380000 | no binding (tested: 2 µg/mL) | no binding (tested: 2 µg/mL) | 0.000259 | 0.31 | – | – | – | B1
2 | – | < 75 | – | 2.8 | 0.0017 | 620000 | no binding (tested: 2 µg/mL) | no binding (tested: 2 µg/mL) | – | 0.32 | > 90 | no binding | 622000 | B2
